Results as given in the nanobody polyreactivity screen of Harvey et al. (2022).

Test: yeast display, Sf9 membrane polyspecificity reagent, FACS + sequencing; frameworks hold sequencing errors
Outline: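 After 36–48 hours of galactose induction, yeast (Saccharomyces cerevisiae BJ5465) displaying a synthetic nanobody library were stained at 4 °C for 1 hour with 10% biotinylated, detergent-solubilized Sf9 membrane reagent. Streptavidin microbeads enriched the stained cells before FACS sorting into low and high (top ~1%) gates on anti-HA and streptavidin fluorescence. Each clone's polyreactivity label reflects its gate of origin.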

| Sequence | polyreactivity (PSR sort gate) |
| --- | --- |
| RVQLVESGGGLVQAGGSLRLSCAASGFTIQRYAMGWYRQAPGKVRELVAGITGGGNTKYADSVKGRFTISRDNAKNTVYLQMNSLKPEDTAVYYCAARGGVPRGKFGYDYWGQGTQVTVSS | high polyreactivity |
| VVQLVESGGGLVQAGGRLRLSCAASGIIFGRYAMGWYRQAPGKERELVASITGNGSTTYYADSVKGRFTISRDNAKNTVYLQMNSLKPDDTAGYYCAADIVVGSPSAEFDYWGQGTQVTVSS | low polyreactivity |
| YYADSVKGLFTISRDNAKNTVYLQMNSLNPEDTAVYYCNAGYYISFNPYDYWGQGTQVTVSS | low polyreactivity |
